Results from US20260242478A1 (published 2026).
Where no end group is shown, it is not given here.

B1: Phage-2403 (peptide)
peptide: IEKWCIPQWMCGNP
modifications: cysteine pairing not given here; also: fused to phage pIII (clonal phage display)

Target: T1, PSMA Fab (006 PSMA Fab)
T1 construct: also called Anti-PSMA Fab; anti-PSMA Fab
Assay: clonal phage ELISA; biotinylated PSMA Fab on neutravidin plate, blocking buffer alone; anti-M13-HRP detection;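 also: clonal phage applied as crude supernatants to wells preincubated with blocking buffer, binding read by ELISA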
Procedure: (§1) Clonal phage were harvested as crude supernatants and screened via standard ELISAs. […] Prior to the addition of clonal phage. wells were incubated with blocking buffer and PSMA antigen or blocking buffer alone. Without washing or aspirating, clonal phage supernatants were then added to the wells and incubated for a short time. Wells were then washed followed by detection of bound phage using a horse radish conjugated anti-M13 antibody.

Point of comparison: LEKWCTPVWMCEGV [Phage-2318], “Phage binding ELISA signal, Anti-PSMA Fab” value 1.46. Against it:
- WDHWCTPAWMCFNA [Phage-2323] — lower, 1.45
- LDKWCIPPWMCETV [Phage-2321] — lower, 1.45
- VEKLCIPHWMCEAS [Phage-2325] — lower, 1.45
- VSNWCIPRGLCTQM [Phage-2320] — lower, 1.45
- SDNWCKPKWMCETI [Phage-2319] — lower, 1.45
- HSHWCIPPWMCTFV [Phage-2324] — lower, 1.45
- VDKWCIPAWMCVSA [Phage-2328] — lower, 1.45
- LEKWCIPTWMCEMT [Phage-2322] — lower, 1.45
- GPTLCIPAWMCSGM [Phage-2326] — lower, 1.45
- SVHWCTPPWMCQGF [Phage-2327] — lower, 1.45
- MEQWCIPQWMCSGF [Phage-2317] — the same, 1.46

Target: T2, PSMA Fab
T2 construct: also called Anti-PSMA Fab; 006 PSMA Fab
Assay: phage ELISA, biotinylated PSMA Fab on neutravidin plate pre-incubated with PSMA antigen as competitor, anti-M13-HRP
Procedure: as §1

Point of comparison: FGISCTPSWMCEGF [Phage-2398], “Phage binding ELISA signal, Anti-PSMA Fab with PSMA antigen” value 0.0988. Against it:
- ASMWCIPPWMCAED [Phage-2395] — lower, 0.085
- HTTWCTPAWMCQGF [Phage-2404] — lower, 0.0895
- WEKWCTPAWMCAVA [Phage-2399] — lower, 0.0716
- VFHLCMPPWMCSQD [Phage-2390] — higher, 0.0997
- DVRWCTPPWMCVAM [Phage-2400] — lower, 0.078
- LERWCIPDWMCEWP [Phage-2394] — lower, 0.078
- EVKWCIPEWMCMVV [Phage-2396] — lower, 0.0647
- LEKWCRPAWMCNGM [Phage-2393] — lower, 0.0594
- SPKWCTPSWMCELQ [Phage-2392] — lower, 0.06
- VMKWCTPEWMCQVF [Phage-2402] — lower, 0.0622
- FPKWCTPSWMCDFV [Phage-2391] — lower, 0.0984
- B1 — lower, 0.0574
- MQHWCVPPWMCQSL [Phage-2401] — lower, 0.082
- WVKWCTPPWMCEWD [Phage-2389] — higher, 0.123
- VVKWCTPAWMCELQ [Phage-2397] — lower, 0.0757

Target: T2, PSMA Fab
Assay: phage ELISA, biotinylated PSMA Fab on neutravidin plate, bound phage detected with anti-M13-HRP
Procedure: as §1

Point of comparison: WVKWCTPPWMCEWD [Phage-2389], “Phage binding ELISA signal, Anti-PSMA Fab” value 1.38. Against it:
- ASMWCIPPWMCAED [Phage-2395] — lower, 1.37
- HTTWCTPAWMCQGF [Phage-2404] — lower, 1.36
- WEKWCTPAWMCAVA [Phage-2399] — lower, 1.37
- VFHLCMPPWMCSQD [Phage-2390] — the same, 1.38
- FGISCTPSWMCEGF [Phage-2398] — lower, 1.37
- DVRWCTPPWMCVAM [Phage-2400] — lower, 1.37
- LERWCIPDWMCEWP [Phage-2394] — lower, 1.37
- EVKWCIPEWMCMVV [Phage-2396] — lower, 1.37
- LEKWCRPAWMCNGM [Phage-2393] — the same, 1.38
- SPKWCTPSWMCELQ [Phage-2392] — the same, 1.38
- VMKWCTPEWMCQVF [Phage-2402] — lower, 1.37
- FPKWCTPSWMCDFV [Phage-2391] — the same, 1.38
- B1 — lower, 1.36
- MQHWCVPPWMCQSL [Phage-2401] — lower, 1.37
- VVKWCTPAWMCELQ [Phage-2397] — lower, 1.37

Target: T3, 006 PSMA Fab
T3 construct: Biotinylated and captured on neutravidin-coated plates in the phage ELISA; also called Anti-PSMA Fab
Assay: clonal phage ELISA; biotinylated PSMA Fab on neutravidin plate, anti-M13-HRP detection
Procedure: as §1

Point of comparison: DAKWCIPDWMCYGF [Phage-2387], “phage binding ELISA signal” value 1.38. Against it:
- IPKWCTPVWMCAGF [Phage-2385] — the same, 1.38
- PDKWCIPQWMCDIT [Phage-2376] — higher, 1.39
- VQKWCIPPWMCQIS [Phage-2380] — higher, 1.39
- FYKWCTPEWMCTVN [Phage-2384] — the same, 1.38
- DFMRCTPEWMCTGF [Phage-2382] — higher, 1.39
- LGIWCIPEWMCVSA [Phage-2381] — higher, 1.39
- VEKWCKPEWMCTSL [Phage-2386] — the same, 1.38
- HDKLCIPLWMCDGV [Phage-2377] — higher, 1.39
- GEKWCIPTWMCDWT [Phage-2373] — higher, 1.4
- TIKWCTPPWMCIMN [Phage-2388] — the same, 1.38
- FEHWCTPPWMCFSS [Phage-2383] — the same, 1.38
- DGKWCIPPWMCAMA [Phage-2375] — higher, 1.4
- VVKWCIPTWMCQTL [Phage-2378] — higher, 1.39
- MGNWCIPEWMCWGT [Phage-2374] — higher, 1.4
- LHKWCTPAWMCEVP [Phage-2379] — higher, 1.39

Target: T1, PSMA Fab (006 PSMA Fab)
Assay: clonal phage ELISA; biotinylated PSMA Fab on neutravidin plate pre-incubated with competitor PSMA antigen; anti-M13-HRP detection
Procedure: as §1

Point of comparison: VEKLCIPHWMCEAS [Phage-2325], “Phage binding ELISA signal, Anti-PSMA Fab in presence of PSMA antigen” value 0.0647. Against it:
- WDHWCTPAWMCFNA [Phage-2323] — higher, 0.119
- LDKWCIPPWMCETV [Phage-2321] — lower, 0.0597
- VSNWCIPRGLCTQM [Phage-2320] — higher, 0.0665
- SDNWCKPKWMCETI [Phage-2319] — higher, 0.116
- LEKWCTPVWMCEGV [Phage-2318] — higher, 0.0702
- HSHWCIPPWMCTFV [Phage-2324] — higher, 0.162
- VDKWCIPAWMCVSA [Phage-2328] — higher, 0.0715
- LEKWCIPTWMCEMT [Phage-2322] — higher, 0.0679
- GPTLCIPAWMCSGM [Phage-2326] — higher, 0.0802
- SVHWCTPPWMCQGF [Phage-2327] — higher, 0.0771
- MEQWCIPQWMCSGF [Phage-2317] — higher, 0.0911

Target: T4, PSMA Fab (006 PSMA Fab)
T4 construct: In the phage ELISA the PSMA Fab was biotinylated and captured on neutravidin coated plates; also called Anti-PSMA Fab; anti-PSMA Fab
Assay: clonal phage ELISA on biotinylated PSMA Fab captured on neutravidin plates, anti-M13-HRP detection;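 also: crude clonal phage supernatants added to wells preincubated with PSMA antigen or with blocking buffer only (no wash between), briefly incubated, then washed before detecting bound phage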
Procedure: as §1

With MEKWCIPSWMCVGM [Phage-2405] the “Phage binding ELISA signal, Anti-PSMA Fab” value was 1.36.

Target: T3, 006 PSMA Fab
Assay: clonal phage ELISA on PSMA Fab-coated plate; competitor: PSMA antigen pre-incubated in the well
Procedure: as §1

Point of comparison: LGIWCIPEWMCVSA [Phage-2381], “phage binding ELISA signal in presence of PSMA” value 0.0793. Against it:
- IPKWCTPVWMCAGF [Phage-2385] — higher, 0.0806
- DAKWCIPDWMCYGF [Phage-2387] — higher, 0.0838
- PDKWCIPQWMCDIT [Phage-2376] — lower, 0.0617
- VQKWCIPPWMCQIS [Phage-2380] — higher, 0.0907
- FYKWCTPEWMCTVN [Phage-2384] — higher, 0.138
- DFMRCTPEWMCTGF [Phage-2382] — lower, 0.0663
- VEKWCKPEWMCTSL [Phage-2386] — lower, 0.0692
- HDKLCIPLWMCDGV [Phage-2377] — higher, 0.0834
- GEKWCIPTWMCDWT [Phage-2373] — lower, 0.0544
- TIKWCTPPWMCIMN [Phage-2388] — higher, 0.103
- FEHWCTPPWMCFSS [Phage-2383] — lower, 0.0713
- DGKWCIPPWMCAMA [Phage-2375] — higher, 0.0859
- VVKWCIPTWMCQTL [Phage-2378] — higher, 0.101
- MGNWCIPEWMCWGT [Phage-2374] — lower, 0.0727
- LHKWCTPAWMCEVP [Phage-2379] — higher, 0.0904

Target: T4, PSMA Fab (006 PSMA Fab)
Assay: clonal phage ELISA on captured PSMA Fab, wells pre-incubated with PSMA antigen as competitor (column head not shown, assumed)

With MEKWCIPSWMCVGM [Phage-2405] the “Phage binding ELISA signal, Anti-PSMA Fab with PSMA antigen” value was 0.0682.
